Laboratory results as given in patent publication US20140072650A1, “GELATIN EXTRACT MADE FROM SKATE RAY SKIN AND ANTIHYPERTENSIVE COMPOSITION HAVING PEPTIDE ISOLATED FROM EXTRACT AS ACTIVE INGREDIENT” (PUKYONG NATIONAL UNIVERSITY INDUSTRY-UNIVERSITY CO, priority 2012, published 2014).

Biological target: angiotensin converting enzyme (Homo sapiens, UniProt P12821)
Test: ACE inhibition activity measurement (IC50)
Type: biochemical
Conditions: FIG. 6; for ACE inhibition: isolated peptides
Protocol: The inventors of the present invention measured the ACE inhibition activities based on the process concentration with respect to the second hydrolysate containing a lower molecular weight among the gelatin extracts of the skins of a skate ray obtained from the above embodiments so as to develop a new hypertension therapy medicine which could be quickly absorbed by a human body and has a good effect, and the measurements were conducted in the method of measuring IC50 concentration which could inhibit 50% of the angiotensin converting enzyme in accordance with the angiotensin converting enzyme inhibition measurement method.
The inventors of the present invention isolated two active peptides by way of FPLC (Fast Protein Liquid Chromatography) with respect to the second hydrolysate so as to isolate the functional peptides having an antihypertensive activity contained in the second hydrolysate of the gelatin extract obtained from the skins of a skate ray. As a result of the analysis on the base sequence of the peptide, it was confirmed that the peptide had the following base sequence. In addition, the ACE inhibition (IC50) was checked in the earlier explained method so as to check the antihypertensive activity with respect to the peptides.

Chain of angiotensin converting enzyme (P12821 30-1306, species assumed): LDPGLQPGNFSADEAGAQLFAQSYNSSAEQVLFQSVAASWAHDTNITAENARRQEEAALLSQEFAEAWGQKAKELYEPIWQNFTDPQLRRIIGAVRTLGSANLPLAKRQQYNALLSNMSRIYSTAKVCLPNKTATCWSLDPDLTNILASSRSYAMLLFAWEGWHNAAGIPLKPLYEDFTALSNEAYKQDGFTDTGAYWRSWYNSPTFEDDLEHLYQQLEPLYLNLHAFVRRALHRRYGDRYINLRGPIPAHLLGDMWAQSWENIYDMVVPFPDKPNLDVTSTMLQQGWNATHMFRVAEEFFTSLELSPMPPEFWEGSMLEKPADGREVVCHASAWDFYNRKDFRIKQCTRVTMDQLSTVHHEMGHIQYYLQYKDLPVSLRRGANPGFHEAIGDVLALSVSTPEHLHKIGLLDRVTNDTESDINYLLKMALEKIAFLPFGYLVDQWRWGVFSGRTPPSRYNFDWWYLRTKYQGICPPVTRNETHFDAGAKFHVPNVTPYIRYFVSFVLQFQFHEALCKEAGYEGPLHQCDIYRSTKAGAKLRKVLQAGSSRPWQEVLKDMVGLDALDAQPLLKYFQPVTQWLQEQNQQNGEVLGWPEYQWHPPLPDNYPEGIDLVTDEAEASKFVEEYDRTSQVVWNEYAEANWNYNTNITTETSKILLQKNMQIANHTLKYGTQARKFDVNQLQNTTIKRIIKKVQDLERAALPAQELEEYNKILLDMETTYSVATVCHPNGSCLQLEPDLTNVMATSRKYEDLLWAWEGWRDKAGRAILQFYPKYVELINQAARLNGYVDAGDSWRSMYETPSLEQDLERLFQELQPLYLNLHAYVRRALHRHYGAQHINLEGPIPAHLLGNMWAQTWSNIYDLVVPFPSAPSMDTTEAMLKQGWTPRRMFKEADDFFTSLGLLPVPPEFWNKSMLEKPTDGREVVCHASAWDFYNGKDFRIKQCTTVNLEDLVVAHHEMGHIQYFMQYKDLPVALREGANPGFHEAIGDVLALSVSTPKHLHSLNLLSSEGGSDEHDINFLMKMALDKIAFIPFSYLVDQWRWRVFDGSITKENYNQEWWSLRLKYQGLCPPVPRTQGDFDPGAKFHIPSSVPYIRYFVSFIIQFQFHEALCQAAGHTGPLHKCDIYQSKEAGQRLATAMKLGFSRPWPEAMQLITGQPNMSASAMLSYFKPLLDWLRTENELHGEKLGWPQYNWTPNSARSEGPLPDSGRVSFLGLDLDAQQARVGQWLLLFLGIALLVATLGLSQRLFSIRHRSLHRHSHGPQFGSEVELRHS

## LGPLGHQ [SP2, peptide (720 Da) isolated by FPLC from the second hydrolysate]
  ACE inhibition: have the ACE inhibition

## MVGSAPGVL [SPI, peptide (829 Da) isolated by FPLC from the second hydrolysate]
  antihypertensive activity (ACE inhibition) compared with the other peptide: higher antihypertensive activity as compared to the SP2
  ACE inhibition: have the ACE inhibition
